Measured values from PMC8539640.
Each block holds one substance with its values, some of them ahead of it.

What was measured:
[1] = target: Bam35 P26 (transglycosylase and integral membrane scaffolding, suggested), bait pBN_26 (Bacillus virus Bam35); experiment: two-hybrid
[2] = target: Bam35 P22 (special vertex, suggested), bait pBN_22 (Bacillus virus Bam35); experiment: two-hybrid; pairwise Y2H: Bam35 ORF baits (pBC or pBN) against full-length HER1410 ORF preys (pPC or pPN); HIS3 reporter, -LWH with 0, 0.025, 0.1, 3, 10, 25, 50 and 100 mM 3AT; positive when growth was higher than in the self-activation controls with the empty vectors
[3] = target: Bam35 P19t (P19 without its predicted transmembrane domain), bait pBN_19t (Bacillus virus Bam35); experiment: two-hybrid

Substance: B. thuringiensis HER1410 protein of locus 16200, full length, prey pPC_(16200) (natural protein)
Max. 3AT (mM) (B35ORF BtORF) [1]: 3 mM

Max. 3AT (mM) (B35ORF BtORF) [2]: 50 mM
Substance: B. thuringiensis HER1410 YadS, full length, prey pPC_yadS(28175) (natural protein)

other [3]: 100 mM
Substance: B. thuringiensis HER1410 OmpR, full length, prey pPC_ompR(22050) (natural protein)
